In article PMC8486872 (2021):

B1: LD3_v3 (designed binder)
chain: QRWELALGRFLEYLSWVSTLSEQVQEELLSSQVTQELRALMDETMKELKAYKSELEEQLTPVAEETRARLSKELQAAQARLGADMEDVRGRLVQYRGEVQAMLGQSTEELRVRLASHLIALALRLIGAAFDLQKRLAVY
B2: LD3_v1 (designed binder)
chain: QRWELALGRFLAYLSWVSTLSEQVQEELLSSQVTQELRALMDETMKELKAYKSELEEQLTPVAEETRARLSKELQAAQARLGADMEDVRGRLVQYRGEVQAMLGQSTEELRVRLASHLIALALRLIGDAFDLQKRLAVY
B3: LD3_v2 (designed binder)
chain: QRWELALGRFLEYLSWVSTLSEQVQEELLSSQVTQELRALMDETMKELKAYKSELEEQLTPVAEETRARLSKELQAAQARLGADMEDVRGRLVQYRGEVQAMLGQSTEELRVRLASHLIALALALIGDAFDLQKRLAVY

Biological target: Bcl2 (UniProt P10415 1-239)
Assay: SPR

Bcl2, sequence (P10415 whole entry): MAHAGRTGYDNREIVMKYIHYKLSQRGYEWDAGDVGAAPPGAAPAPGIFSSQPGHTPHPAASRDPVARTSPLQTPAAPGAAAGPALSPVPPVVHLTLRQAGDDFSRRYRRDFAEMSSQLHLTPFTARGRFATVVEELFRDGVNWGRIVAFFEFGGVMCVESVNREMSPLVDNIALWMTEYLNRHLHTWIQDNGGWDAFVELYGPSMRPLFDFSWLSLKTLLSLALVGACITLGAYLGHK

Question: Which Kd does the source give for B1 here?
Answer: The Kd was 147 nM.

Question: Which Kd does the source give for B2 here?
Answer: The Kd was 16.8 nM.

Question: With B3 as the binder, how does the Kd read?
Answer: Its Kd is 64.1 nM.
